Laboratory results as given in PMC9897468 (Proceedings of the National Academy of Sciences of the …, 2022).

B1: C-terminal APC fragment (APC-C), residues 2,163 to 2,845 (domain or fragment, UniProt Q61315 2163-2845, looked up)
chain: KGPRILKPGEKSTLEAKKIESENKGIKGGKKVYKSLITGKIRSNSEISSQMKQPLPTNMPSISRGRTMIHIPGLRNSSSSTSPVSKKGPPLKTPASKSPSEGPGATTSPRGTKPAGKSELSPITRQTSQISGSNKGSSRSGSRDSTPSRPTQQPLSRPMQSPGRNSISPGRNGISPPNKLSQLPRTSSPSTASTKSSGSGKMSYTSPGRQLSQQNLTKQASLSKNASSIPRSESASKGLNQMSNGNGSNKKVELSRMSSTKSSGSESDSSERPALVRQSTFIKEAPSPTLRRKLEESASFESLSPSSRPDSPTRSQAQTPVLSPSLPDMSLSTHPSVQAGGWRKLPPNLSPTIEYNDGRPTKRHDIARSHSESPSRLPINRAGTWKREHSKHSSSLPRVSTWRRTGSSSSILSASSESSEKAKSEDERHVSSMPAPRQMKENQVPTKGTWRKIKESDISPTGMASQSASSGAASGAESKPLIYQMAPPVSKTEDVWVRIEDCPINNPRSGRSPTGNTPPVIDSVSEKGSSSIKDSKDSKDTHGKQSVGSGSPVQTVGLETRLNSFVQVEAPEQKGTEAKPGQSNPVSIAETAETCIAERTPFSSSSSSKHSSPSGTVAARVTPFNYNPSPRKSSADSTSARPSQIPTPVSTNTKKRDSKTDITESSGAQSPKRHSGSYLVTSV
modifications: Alexa647 label (APC-C-647, in the TIRF-M experiments)
B2: full-length mouse KIF5AA homodimer (kinesin-1), unlabeled (natural protein, UniProt P33175 1-1027, looked up)
chain: MAETNNECSIKVLCRFRPLNQAEILRGDKFIPIFQGDDSVIIGGKPYVFDRVFPPNTTQEQVYHACAMQIVKDVLAGYNGTIFAYGQTSSGKTHTMEGKLHDPQLMGIIPRIARDIFNHIYSMDENLEFHIKVSYFEIYLDKIRDLLDVTKTNLSVHEDKNRVPFVKGCTERFVSSPEEILDVIDEGKSNRHVAVTNMNEHSSRSHSIFLINIKQENVETEQKLSGKLYLVDLAGSEKVSKTGAEGAVLDEAKNINKSLSALGNVISALAEGTKSYVPYRDSKMTRILQDSLGGNCRTTMFICCSPSSYNDAETKSTLMFGQRAKTIKNTASVNLELTAEQWKKKYEKEKEKTKAQKETIAKLEAELSRWRNGENVPETERLAGEDSALGAELCEETPVNDNSSIVVRIAPEERQKYEEEIRRLYKQLDDKDDEINQQSQLIEKLKQQMLDQEELLVSTRGDNEKVQRELSHLQSENDAAKDEVKEVLQALEELAVNYDQKSQEVEEKSQQNQLLVDELSQKVATMLSLESELQRLQEVSGHQRKRIAEVLNGLMRDLSEFSVIVGNGEIKLPVEISGAIEEEFTVARLYISKIKSEVKSVVKRCRQLENLQVECHRKMEVTGRELSSCQLLISQHEAKIRSLTEYMQTVELKKRHLEESYDSLSDELARLQAHETVHEVALKDKEPDTQDAEEVKKALELQMENHREAHHRQLARLRDEINEKQKTIDELKDLNQKLQLELEKLQADYERLKNEENEKSAKLQELTFLYERHEQSKQDLKGLEETVARELQTLHNLRKLFVQDVTTRVKKSAEMEPEDSGGIHSQKQKISFLENNLEQLTKVHKQLVRDNADLRCELPKLEKRLRATAERVKALEGALKEAKEGAMKDKRRYQQEVDRIKEAVRYKSSGKRGHSAQIAKPVRPGHYPASSPTNPYGTRSPECISYTNNLFQNYQNLHLQAAPSSTSDMYFASSGATSVAPLASYQKANMDNGNATDINDNRSDLPCGYEAEDQAKLFPLHQETAAS

Assays:
[1] = target: B2; test: TIRF-M in vitro motility reconstitution
APC-mGFP = APC-mGFP (UniProt Q61315 1-2845); test: TIRF-M in vitro motility reconstitution

| Binder | binding result [1] | binding result (APC-mGFP) |
| --- | --- | --- |
| B1 | binds |  |
| B2 |  | binds |
